Measurements published in the supplement of paper PMC10567573.

B1: NFE2L1 (parent)
chain: TLDGYGIHPKSIDLDNYFTARRLL

Variants of: B1
Assay: protein stability index of a GFP-peptide fusion (GPS, HEK-293T) (PSI 1-6); higher = more stable
Conditions: c terminus: a fixed tail appended
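Also: lentivirally expressed fusions sorted by FACS into six bins by GFP to DsRed ratio, PSI derived from sequencing read proportions per bin multiplied by bin number.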

| Variant | protein stability index |
| --- | --- |
| S11F | 2.29 |
| S11H | 1.89 |
| S11L | 2 |
| S11M | 1.57 |
| S11G | 1.91 |
| S11I | 1.4 |
| S11Y | 1.67 |
| S11P | 2.04 |
| S11N | 2.19 |
| S11D | 2.38 |
| S11V | 2.49 |
| S11E | 2.28 |
| S11R | 1.97 |
| S11C | 1.98 |
| S11A | 1.49 |
| S11K | 2.58 |
| S11Q | 1.89 |
| S11T | 1.97 |
| S11W | 1.67 |
| Y5D | 2.8 |
| Y5M | 2.5 |
| Y5I | 2.21 |
| Y5G | 2.43 |
| Y5C | 2.01 |

| Variant | protein stability index |
| --- | --- |
| Y5F | 1.89 |
| Y5N | 2.25 |
| Y5R | 1.76 |
| Y5P | 2.13 |
| Y5Q | 1.48 |
| Y5E | 2.21 |
| Y5L | 2.3 |
| Y5A | 2.67 |
| Y5K | 1.85 |
| Y5W | 1.97 |
| Y5V | 2.42 |
| Y5T | 2.13 |
| Y5H | 2.12 |
| Y5S | 2.05 |
| P9T | 1.95 |
| P9Y | 1.68 |
| P9W | 2.16 |
| P9F | 1.55 |
| P9L | 2.7 |
| P9N | 2.66 |
| P9D | 1.88 |
| P9V | 1.5 |
| P9M | 2.05 |
| P9G | 1.91 |

| Variant | protein stability index |
| --- | --- |
| P9R | 2.22 |
| P9C | 1.62 |
| P9Q | 2.08 |
| P9S | 1.71 |
| P9A | 1.68 |
| P9H | 2.14 |
| P9K | 2.24 |
| P9I | 2.39 |
| P9E | 1.97 |
| G4V | 1.22 |
| G4K | 1.53 |
| G4D | 2.57 |
| G4R | 1.95 |
| G4M | 2.09 |
| G4A | 1.73 |
| G4P | 1.63 |
| G4Q | 1.75 |
| G4I | 1.65 |
| G4N | 2.03 |
| G4E | 1.47 |
| G4T | 1.55 |
| G4S | 2.13 |
| G4L | 1.27 |
| G4H | 1.62 |

| Variant | protein stability index |
| --- | --- |
| G4C | 1.43 |
| G4Y | 1.5 |
| G4F | 1.46 |
| G4W | 1.91 |
| H8R | 1.55 |
| H8E | 2.42 |
| H8Q | 1.79 |
| H8L | 1.67 |
| H8F | 1.95 |
| H8I | 1.98 |
| H8P | 1.94 |
| H8T | 2.05 |
| H8S | 1.81 |
| H8G | 1.75 |
| H8Y | 1.72 |
| H8N | 1.78 |
| H8M | 1.82 |
| H8D | 2.02 |
| H8C | 1.87 |
| H8A | 2.22 |
| H8V | 2.28 |
| H8K | 2.07 |
| H8W | 1.66 |
| I7K | 1.75 |

| Variant | protein stability index |
| --- | --- |
| I7R | 2.04 |
| I7P | 2.12 |
| I7N | 2.1 |
| I7W | 1.67 |
| I7L | 1.7 |
| I7F | 1.62 |
| I7T | 1.78 |
| I7E | 2.27 |
| I7H | 2.85 |
| I7V | 1.68 |
| I7Q | 2.35 |
| I7D | 2.4 |
| I7C | 2.4 |
| I7S | 1.91 |
| I7A | 2.01 |
| I7M | 1.75 |
| I7G | 1.92 |
| I7Y | 1.9 |
| D3W | 1.47 |
| D3S | 1.71 |
| D3Q | 1.79 |
| D3R | 2.33 |
| D3T | 1.61 |
| D3V | 1.62 |

| Variant | protein stability index |
| --- | --- |
| D3Y | 2.25 |
| I12C | 2.18 |
| I12E | 2.99 |
| I12K | 1.85 |
| I12G | 2.43 |
| I12A | 1.89 |
| I12F | 2.02 |
| I12D | 3.05 |
| I12H | 2.24 |
| G6C | 1.48 |
| G6V | 2.25 |
| G6N | 2.21 |
| G6S | 1.62 |
| G6E | 2.02 |
| G6Q | 1.94 |
| G6R | 1.87 |
| G6I | 1.58 |
| G6A | 2.26 |
| G6H | 1.97 |
| G6M | 1.83 |
| G6T | 1.83 |
| G6D | 1.54 |
| G6L | 1.59 |
| G6F | 2.69 |

| Variant | protein stability index |
| --- | --- |
| G6Y | 1.71 |
| G6P | 1.76 |
| G6K | 1.91 |
| G6W | 1.54 |
| K10V | 1.5 |
| K10M | 1.88 |
| K10Y | 1.39 |
| K10N | 2.44 |
| K10Q | 2.12 |
| K10R | 2.11 |
| K10L | 2.01 |
| K10S | 2.22 |
| K10W | 2.24 |
| K10A | 1.79 |
| K10P | 1.73 |
| K10T | 1.94 |
| K10E | 1.65 |
| K10D | 2.37 |
| K10H | 2.2 |
| K10F | 1.87 |
| K10C | 2.54 |
| K10I | 1.94 |
| K10G | 1.93 |
